The results in this text go back to patent US20140243272A1 (ALPHABETA, published 2014).

B1: cellulose-bound decamer of G (peptide)
peptide: GGGGGGGGGG
notes: also called G counterpart
B2: LLLLLLLLLL, poly-leucine 10-mer peptide, spot 17 (peptide)
peptide: LLLLLLLLLL
notes: also called decamer of L
B3: cellulose-bound decamer of I (peptide)
peptide: IIIIIIIIII
notes: also called stretch of I
B4: cellulose-bound decamer of F (peptide)
peptide: FFFFFFFFFF
notes: also called stretch of F
B5: cellulose-bound decamer of M (peptide)
peptide: MMMMMMMMMM
notes: also called stretch of M
B6: AAAAAAAAAA, poly-alanine 10-mer peptide, spot 18 (peptide)
peptide: AAAAAAAAAA
notes: also called decamer of A
B8: cellulose-bound decamer of P (peptide)
peptide: PPPPPPPPPP
notes: also called P counterpart
B9: cellulose-bound decamer of W (peptide)
peptide: WWWWWWWWWW
notes: also called W counterpart
B11: cellulose-bound decamer of Y (peptide)
peptide: YYYYYYYYYY
notes: also called stretch of Y

In experiment [1] the target is T1, ER-luminal part of the human Bri protein (human, UniProt Q9Y287 90-236, limits assumed).
T1 construct: domain: ER-luminal part
T1 sequence (looked up): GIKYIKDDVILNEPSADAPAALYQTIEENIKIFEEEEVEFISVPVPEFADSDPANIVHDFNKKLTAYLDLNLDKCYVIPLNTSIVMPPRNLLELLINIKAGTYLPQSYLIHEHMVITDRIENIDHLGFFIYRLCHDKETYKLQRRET
Briefly: cellulose-bound decamer SPOT membrane, control. As for the experimental part: (§1) After blocking with 2% BSA for one hour and washing with T-TBS 4×1 h, the membranes were incubated with HRP-conjugated S-protein (Novagen, Madison, Wis.) diluted 1:5000.

The target of experiment [2] is T2, LVVVVIVGAL (positions 22-31 in SP-C^I23V), spots 21 and 23 (human).
T2 construct: also called spot 21; spot 23
T2 peptide: LVVVVIVGAL
Kind of experiment: peptide SPOT membrane, S-protein-HRP, ECL. As to the method: (§2) SPOT membranes (Frank R, J Immunol Meth, 267:13-26, 2002), containing 10-residue fragments derived from SP-C(SP-C^I23V) were purchased from Sigma Genosys (Cambridge, England). […] The membranes were then blocked with 2% BSA in TBS for one hour. After washing with T-TBS 4×1 h, the membranes were incubated with HRP-conjugated S-protein (Novagen, Madison, Wis.) diluted 1:5000 in T-TBS containing 2% BSA. The membranes were then washed again with T-TBS 4×1 h and binding was visualized by ECL according to the manufacturer's instructions.

Experiment [3] concerns the target B11. Kind of experiment: cellulose-bound decamer SPOT membrane, control. As to the method: as §1
For experiment [4], the target named is B6. Briefly: cellulose-bound decamer SPOT membrane, control. As for the experimental part: as §1
Experiment [5] addresses B5. Briefly: cellulose-bound decamer SPOT membrane, control. As to the method:
as §1

Experiment [6] has as its target B9. Kind of experiment: cellulose-bound decamer SPOT membrane, control. As for the experimental part: as §1
In experiment [7] the target is B2. Briefly: cellulose-bound decamer SPOT membrane, control. As for the experimental part:
as §1

For experiment [8], the target named is B3. Briefly: cellulose-bound decamer SPOT membrane, control. As to the method:
as §1

For experiment [9], the target named is B8. Kind of experiment: cellulose-bound decamer SPOT membrane, control. As for the experimental part:
as §1

For experiment [10], the target named is B4. Kind of experiment: cellulose-bound decamer SPOT membrane, control. As for the experimental part: as §1
For experiment [11], the target named is B1. Kind of experiment: cellulose-bound decamer SPOT membrane, control. As for the experimental part: as §1
The target of experiment [12] is T3, RAAAAAAAAA, Ala-substituted version of SP-C 12-21, spot 12 (human).
T3 peptide: RAAAAAAAAA
Kind of experiment: peptide SPOT membrane, S-protein-HRP, ECL. As to the method: as §2

Experiment [13] addresses B6. Kind of experiment: peptide SPOT membrane, S-protein-HRP, ECL. As for the experimental part:
as §2

Experiment [14] deals with T4, KRAAAAAAAA, Ala-substituted version of SP-C 11-20, spot 9 (human).
T4 peptide: KRAAAAAAAA
Briefly: peptide SPOT membrane, S-protein-HRP, ECL. As for the experimental part:
as §2

The target of experiment [15] is T5, KRLLLLLLLL, Leu-substituted version of SP-C 11-20, spot 8 (human).
T5 peptide: KRLLLLLLLL
Kind of experiment: peptide SPOT membrane, spot 8. As to the method:
as §2

The target in experiment [16] is T6, RLLLLLLLLL, Leu-substituted version of SP-C 12-21, spot 11 (human).
T6 peptide: RLLLLLLLLL
Kind of experiment: peptide SPOT membrane, spot 11. As to the method:
as §2

Experiment [17] addresses B11. Briefly: cellulose-bound decamer SPOT membrane, 1 µg/ml protein, S-protein-HRP, ECL. As to the method:
as §1

Experiment [18] addresses B5. The description is as above. As to the method: as §1
Experiment [19] concerns the target B2. The experiment is described as above. As to the method:
as §1

Experiment [20] has as its target B3. Described as above. As to the method:
as §1

In experiment [21] the target is B4. The description is as above. As for the experimental part:
as §1

In experiment [22] the target is B9. Briefly: cellulose-bound decamer SPOT membrane, S-protein-HRP, ECL. As for the experimental part: as §1
The target in experiment [23] is B8. The experiment is described as above. As to the method: as §1
Experiment [24] concerns the target B1. The experiment is described as above. As to the method:
as §1

In experiment [25] the target is B11. Briefly: cellulose-bound decamer SPOT membrane. As for the experimental part:
as §1

The target of experiment [26] is B5. Kind of experiment: cellulose-bound decamer SPOT membrane. As for the experimental part:
as §1

In experiment [27] the target is B2. Briefly: cellulose-bound decamer SPOT membrane. As to the method: as §1
Experiment [28] has as its target B3. Briefly: cellulose-bound decamer SPOT membrane. As to the method:
as §1

Experiment [29] deals with B4. Briefly: cellulose-bound decamer SPOT membrane. As for the experimental part: as §1

Regarding B1, the binding result in experiment [1] is “no binding”.

For B2, in experiment [1], the binding result is “no binding”.

Turning to B3, in experiment [1], the binding result is listed as “no binding”.

With B4, the binding result in experiment [1] was “no binding”.

In the case of B5, the binding result in [1] was “no binding”.

B6: in [1], the binding result was “no binding”.

B7: Recombinant human CTproSP-C^L188Q, S-tagged (other)
chain: HMSQKHTEMVLEMSIGAPEAQQRLALSEHLVTTATFSIGSTGLVVYDYQQLLIAYKPAPGTCCYIMKIAPESIPSLEALNRKVHNFQMECSLQAKPAVPTSKLGQAEGRDAGSAPSGGDPAFLGMAVNTQCGEVPLYYI
notes: also called mutant human CTproSP-C^L188Q; not shown: S-tag left after thrombin cleavage
B7: the binding result in experiment [2] is on record as “no binding (tested: 1 µg/ml)”; in experiment [3], “no binding”; in experiment [4], “no binding”; in experiment [5], “no binding”; in experiment [6], “no binding”; in [7], “no binding”. The binding result in experiment [8], in [9], in experiment [10] and in experiment [11] was “no binding” throughout.

As to B8, in [1], the binding result is “no binding”.

Take B9: the binding result in experiment [1] is “no binding”.

B10: S-tagged recombinant human CTproSP-C (proSP-C^59-197) (other)
chain: GSGMKETAAAKFERQHMDSPDLGTDDDDKAMAHMSQKHTEMVLEMSIGAPEAQQRLALSEHLVTTATFSIGSTGLVVYDYQQLLIAYKPAPGTCCYIMKIAPESIPSLEALTRKVHNFQMECSLQAKPAVPTSKLGQAEGRDAGSAPSGGDPAFLGMAVSTLCGEVPLYYI
notes: SEC and ESI-MS show mainly trimers and oligomers of trimers; also called CTC; C-terminal domain of lung surfactant protein C precursor
As for B10, the binding result in experiment [12] is “no binding (tested: 1 µg/ml)”; in experiment [13], “no binding (tested: 1 µg/ml)”; in experiment [14] it was “no binding (tested: 1 µg/ml)”; in experiment [15], “binds”; in experiment [16] it was “binds”; in experiment [17], “binds”. The binding result in [18] is recorded as “binds”; in experiment [19], “binds”; in [20] it was “binds”; in experiment [21] it was “binds”; in [22], “no binding (tested: 1 µg/ml)”; in [23] it was “no binding (tested: 1 µg/ml)”. In addition, in [24], the binding result is reported as “no binding (tested: 1 µg/ml)”.

Consider B11, for which the binding result in [1] is “no binding”.

B12: Recombinant human CTproSP-CBrichos (human proSP-C^94-197), S-tagged (other)
chain: FSIGSTGLVVYDYQQLLIAYKPAPGTCCYIMKIAPESIPSLEALNRKVHNFQMECSLQAKPAVPTSKLGQAEGRDAGSAPSGGDPAFLGMAVNTLCGEVPLYYI
notes: also called Brichos domain of human CTproSP-C; Brichos region; not shown: S-tag and vector residues from pET-32c left after thrombin cleavage
As for B12, the binding result in [25], in [26], in experiment [27], in experiment [28] and in experiment [29] was “binds” throughout.
